# Results: publication PMC10206803, “Structural insights into DNA recognition by the BEN domain of the transcription factor BANP”
# T1: BANP BEN domain (human, UniProt Q8N9N5 208-347)
# T1 sequence: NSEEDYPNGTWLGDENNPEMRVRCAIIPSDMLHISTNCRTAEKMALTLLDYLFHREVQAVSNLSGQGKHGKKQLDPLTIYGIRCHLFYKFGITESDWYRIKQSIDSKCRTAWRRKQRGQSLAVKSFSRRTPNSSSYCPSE
# T2: BEND6 BEN domain (human, UniProt Q5SZJ8 170-271)
# T2 sequence: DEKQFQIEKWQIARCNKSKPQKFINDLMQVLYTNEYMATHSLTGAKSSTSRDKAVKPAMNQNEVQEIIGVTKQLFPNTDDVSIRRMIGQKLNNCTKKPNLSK
# Experiments:
# BANP BEN domain = target: T1, BANP BEN domain; test: ITC; ITC: 150 mM NaCl, 20 mM Tris-HCl pH 7.5, with or without DTT, 25 C, 50-90 uM protein in cell, 1 mM DNA in syringe; FP: 20 mM Tris-HCl pH 7.5, 150 mM NaCl, 1 mM; settings: protein: recombinant, tags: His6-SUMO removed by TEV, blunt
# BEND6 BEN domain = target: T2, BEND6 BEN domain; test: fluorescence polarization; ITC: 150 mM NaCl, 20 mM Tris-HCl pH 7.5, with or without DTT, 25 C, 50-90 uM protein in cell, 1 mM DNA in syringe; FP: 20 mM Tris-HCl pH 7.5, 150 mM NaCl, 1 mM; settings: protein: recombinant, tags: His6 (pET28-MHL) removed by TEV, label: 5' FAM
Binder,Kd (BANP BEN domain) [µM],also measured
CGCG DNA (dsDNA) DNA 1: CTCTCGCGAGAG DNA 2: CTCTCGCGAGAG,,Kd (BANP BEN domain; self-complementary): 8.4 ± 0.7 µM
"FAM methylated CGCG DNA (dsDNA, 5-methylcytosine, position not given) DNA 1: CTCTCGCGAGAG DNA 2: CTCTCGCGAGAG",,Kd (BEND6 BEN domain): ~39 µM
AAA and TCTCG both mutated (dsDNA) DNA 1: GCCAGCAACATA DNA 2: TATGTTGCTGGC,15.1 ± 1.9,
PBM motif DNA AAATCTCG (dsDNA) DNA 1: GCAAATCTCGTA DNA 2: TACGAGATTTGC,1 ± 0.1,
AAA to ggg (dsDNA) DNA 1: GCGGGTCTCGTA DNA 2: TACGAGACCCGC,4.3 ± 0.3,
CTCacgcgAGAG (dsDNA) DNA 1: CTCACGCGAGAG DNA 2: CTCTCGCGTGAG,14.3 ± 2.6,
AAA to cag (dsDNA) DNA 1: GCCAGTCTCGTA DNA 2: TACGAGACTGGC,2.9 ± 0.3,
"CGmCG DNA (dsDNA, 5-methylcytosine at C7 of both strands) DNA 1: CTCTCGCGAGAG DNA 2: CTCTCGCGAGAG",,Kd (BANP BEN domain; self-complementary): 7.6 ± 0.3 µM
FAM-CGCG DNA (dsDNA) DNA 1: CTCTCGCGAGAG DNA 2: CTCTCGCGAGAG,,"Kd (BEND6 BEN domain; blunt, self-complementary): ~33 µM"
CTCtggcgAGAG (dsDNA) DNA 1: CTCTGGCGAGAG DNA 2: CTCTCGCCAGAG,14.8 ± 2.3,
TCTCG to TCGCG (dsDNA) DNA 1: GCAAATCGCGTA DNA 2: TACGCGATTTGC,1.5 ± 0.2,
TCTCG to caaca (dsDNA) DNA 1: GCAAACAACATA DNA 2: TATGTTGTTTGC,5.4 ± 0.4,
CTCgagcgAGAG (dsDNA) DNA 1: CTCGAGCGAGAG DNA 2: CTCTCGCTCGAG,14.1 ± 3,
